Source: US20250313635A1, “ANTI-INTEGRIN ANTIBODIES AND USES THEREOF” (Merck Sharp & Dohme LLC, priority 2022, published 2025)
Like-named read-outs stand apart in the source and are kept apart here.

Columns and labels:
mα5β1 = biological target: T1, mα5β1 (Mus musculus, UniProt P09055+P11688); assay: Mouse AlphaLISA integrin-ligand blocking assay (fibronectin); type: biochemical; conditions: Table 12; read-out: IC50 Mouse integrin AlphaLISA assays mα5β1
T1 construct: The full extracellular domains for all α and β integrin subunits; (GGGS)3 linker (C); acidic coiled-coil with cysteine (C); GG-Avitag (C); hexa-histidine tag (C); basic coiled-coil with cysteine (C); made in house; host or cells: Expi293 cells
Experimental: (§1) Integrin AlphaLISA assay. In the AlphaLISA integrin assays, we used a HEPES based buffer (25 mM HEPES pH 7.4, 137 mM NaCl, 1 mM MgCl2, 1 mM MnCl2, 2 mM CaCl2, 2.7 mM KCl, and 0.05% Tween 20). Optimal assay conditions were determined with a titration of the reagents for signal noise ratio (S/N), linear range, etc. For the respective integrins, we used the final concentrations described in Table 9.
(§2) Briefly, the testing antibody (8 μL) was added as a 4×(of Final testing concentration) solution in the HEPES buffer described previously into a 384w AlphaPlate™ (Perkin Elmer #6005350). Then the integrin and ligand were added sequentially as 8×(4 μL each). Plates were sealed and incubated at room temperature for two hours. Then 4×acceptor bead solution ([…]) was added, and the plates were resealed and incubated at room temperature (RT) for one hour. Finally, 4×([…]) donor beads solution was added in a darkened room and incubated for 45 minutes at room temperature. Plates were read on the Envision (Perkin Elmer) in AlphaScreen™ mode within three hours of donor bead addition.

mαvβ8 = biological target: T2, mαvβ8 (Mus musculus, UniProt P43406+Q0VBD0); assay: Mouse AlphaLISA integrin-ligand blocking assay (LAP); type: biochemical; conditions: Table 12; read-out: IC50 Mouse integrin AlphaLISA assays mαvβ8
T2 construct: The full extracellular domains for all α and β integrin subunits; (GGGS)3 linker (C); acidic coiled-coil with cysteine (C); GG-Avitag (C); hexa-histidine tag (C); basic coiled-coil with cysteine (C); made in house; host or cells: Expi293 cells
Experimental: as §1, §2

hαvβ6 = biological target: T3, hαvβ6 (Homo sapiens, UniProt P06756+P18564); assay: Integrin cell-based ELISA (CELISA) binding, CHOK1-human αvβ6 cells; conditions: FIG. 3C
T3 construct: expressed in transfected cells
Experimental: (§3) Integrin cell-based ELISA (CELISA) assay. Cell binding EC50 data for antibodies were obtained for CHOK1 parental cells and CHOK1 cells expressing human or mouse αvβ1, αvβ6, and αvβ1 integrins by cell-based ELISA. Three days prior to the assay cells were seeded at 10,000 cells per well in 100 μL/well of media in Falcon 96-well Flat-Bottom Tissue Culture Plates (REF 353916), resulting in an even cell monolayer in each well on the day of the assay. On the day of the assay, media was removed from the cells and a fivefold titration of primary antibodies was added at concentrations ranging from 0 to 200 nM in TBSF+MnCl2 buffer (25 mM Tris, 0.15 M NaCl, 0.1% BSA, 0.5 mM MnCl2, pH 7.5). Cells incubated with primary antibody solution for 1 hour at room temperature. Primary antibody was removed and plates were washed twice with 150 μL/well of 1×DPBS+Tween 20 (TEKnova Cat #β0297, diluted to 1× in distilled water GIBCO #15230-147), before adding 50 μL/well of a 1:5000 dilution of HRP-conjugated goat anti-mouse IgG (Southern Biotech, #1030-05) in TBSF+MnCl2. After 30 minutes of incubation at room temperature, secondary antibody was removed, and cells were washed twice with 150 μL/well of 1×DPBS+Tween 20. […] Absorbance was read on a TECAN plate reader at 450 nm, with a 620 nm reference wavelength.

mαvβ1 = biological target: T4, mαvβ1 (Mus musculus, UniProt P09055+P43406); assay: Mouse AlphaLISA integrin-ligand blocking assay (fibronectin); type: biochemical; conditions: Table 12; read-out: IC50 Mouse integrin AlphaLISA assays mαvβ1
T4 construct: The full extracellular domains for all α and β integrin subunits; (GGGS)3 linker (C); acidic coiled-coil with cysteine (C); GG-Avitag (C); hexa-histidine tag (C); basic coiled-coil with cysteine (C); made in house; host or cells: Expi293 cells
Experimental: as §1, §2

mouse αvβ8 = biological target: T5, mouse αvβ8 (Mus musculus, UniProt P43406+Q0VBD0); assay: Latent TGFβ activation assay, TMLC / CHOK1-integrin co-culture (PAI-1 luciferase); type: cell-based; conditions: FIG. 5B
T5 construct: expressed in transfected cells
Experimental: (§4) Latent TGFβ activation assay. Transfected mink lung epithelial cell (TMLC) cell line containing the TGFβ responsive PAI-1 promoter driving luciferase expression (Mazzieri et al, Methods Mol. Biol. 142, 13-27 (2000)) and the CHO-K1 human and mouse αvβ×integrin cell lines were grown under optimized growth conditions to 90% confluency. TMLC cells were trypsinized and plated at 25,000 cells/well in 50 μL in Costar clear bottom white walled plates. In a separate plate, 25 μL of serially diluted antibodies at 4×concentration were added to wells containing 25 μL of either 25,000 cells of human or mouse αvβ×cells. After a brief mixing, the 50 μL mixture was transferred to the TMLC cell plates for a total volume of 100 μL and incubated at 37° C. for 16 hours. 100 μL of ONE-Glo kit (#PRE6120) was added to each well and read after three to five minutes on the Envision plate reader.

human αvβ8 = biological target: T6, human αvβ8 (Homo sapiens, UniProt P06756+P26012); assay: as above; type: cell-based; conditions: FIG. 5B
T6 construct: expressed in transfected cells
Experimental: as §4

mouse αvβ1 = biological target: T7, mouse αvβ1 (Mus musculus, UniProt P09055+P43406); assay: as above; type: cell-based; conditions: FIG. 5B
T7 construct: expressed in transfected cells
Experimental: as §4

human αvβ6 = biological target: T8, human αvβ6 (Homo sapiens, UniProt P06756+P18564); assay: as above; type: cell-based; conditions: FIG. 5B
T8 construct: expressed in transfected cells
Experimental: as §4

human αvβ1 = biological target: T9, human αvβ1 (Homo sapiens, UniProt P05556+P06756); assay: as above; type: cell-based; conditions: FIG. 5B
T9 construct: expressed in transfected cells
Experimental: as §4

mouse αvβ6 = biological target: T10, mouse αvβ6 (Mus musculus, UniProt P43406+Q9Z0T9); assay: as above; type: cell-based; conditions: FIG. 5B
T10 construct: expressed in transfected cells
Experimental: as §4

hαvβ1 = biological target: T11, hαvβ1 (Homo sapiens, UniProt P05556+P06756); assay: Integrin cell-based ELISA (CELISA) binding, CHOK1-human αvβ1 cells; conditions: FIG. 3C
T11 construct: expressed in transfected cells
Experimental: as §3

mαvβ6 = biological target: T12, mαvβ6 (Mus musculus, UniProt P43406+Q9Z0T9); assay: Mouse AlphaLISA integrin-ligand blocking assay (LAP); type: biochemical; conditions: Table 12; read-out: IC50 Mouse integrin AlphaLISA assays mαvβ6
T12 construct: The full extracellular domains for all α and β integrin subunits; (GGGS)3 linker (C); acidic coiled-coil with cysteine (C); GG-Avitag (C); hexa-histidine tag (C); basic coiled-coil with cysteine (C); made in house; host or cells: Expi293 cells
Experimental: as §1, §2

[1] = system: IPF patient lung fibroblasts; assay: αSMA imaging, TGFβ-induced αSMA expression; type: cell-based, human; conditions: TGFβ 5 ng/mL, 48 hours
Experimental: (§5) αSMA imaging. Primary cells (passage 3-5) were grown on Cell carrier Ultra, collagen Type 1 coated 96-well plates (Perkin Elmer, #6055700) at a density of 25,000 cells/well. Once the cells adhere, they were starved in serum free media for 24 hours followed by addition of treatments, i.e., 5 ng/mL TGFβ (Biolegend #580702)±inhibitors. Cells were pre-treated with inhibitors for 30 minutes prior to the addition of TGFβ stimulation. 48 hours post treatment, the cells were fixed in 4% methanol free paraformaldehyde (ThermoFisher Scientific #28908) for 20 minutes at room temperature and incubated with anti-alpha smooth muscle Actin antibody (Abcam #ab7817) at 1:4000 overnight at 4° C. Following primary antibody incubation, cells were incubated with Goat anti-mouse secondary antibody (ThermoFisher Scientific #A32723) at 1:500 and Hoechst (ThermoFisher Scientific #62249) at 1:1000 for one hour at RT. The fixed and stained cells were images for immunofluorescence on Perkin Elmer's Opera Phenix high content Imager.

hα5β1 = hα5β1 (Homo sapiens, UniProt P05556+P08648); assay: Human AlphaLISA integrin-ligand blocking assay (fibronectin); type: biochemical; parameters: The full extracellular domains for all α and β integrin subunits; (GGGS)3 linker (C); acidic coiled-coil with cysteine (C); GG-Avitag (C); hexa-histidine tag (C); basic coiled-coil with cysteine (C); made in house; host or cells: Expi293 cells; conditions: Table 11; read-out: IC50 Human integrin AlphaLISA assays hα5β1
Experimental: as §1, §2

mαvβ5 = biological target: T13, mαvβ5 (Mus musculus, UniProt O70309+P43406); assay: Mouse AlphaLISA integrin-ligand blocking assay (vitronectin); type: biochemical; conditions: Table 12; read-out: IC50 Mouse integrin AlphaLISA assays mαvβ5
T13 construct: The full extracellular domains for all α and β integrin subunits; (GGGS)3 linker (C); acidic coiled-coil with cysteine (C); GG-Avitag (C); hexa-histidine tag (C); basic coiled-coil with cysteine (C); made in house; host or cells: Expi293 cells
Experimental: as §1, §2

mαvβ3 = biological target: T14, mαvβ3 (Mus musculus, UniProt O54890+P43406); assay: as above; type: biochemical; conditions: Table 12; read-out: IC50 Mouse integrin AlphaLISA assays mαvβ3
T14 construct: The full extracellular domains for all α and β integrin subunits; (GGGS)3 linker (C); acidic coiled-coil with cysteine (C); GG-Avitag (C); hexa-histidine tag (C); basic coiled-coil with cysteine (C); made in house; host or cells: Expi293 cells
Experimental: as §1, §2

[2] = system: Normal human lung fibroblasts; assay: αSMA imaging, TGFβ-induced αSMA expression; type: cell-based
Experimental: as §5

T1 sequence (P11688 45-999 limits assumed): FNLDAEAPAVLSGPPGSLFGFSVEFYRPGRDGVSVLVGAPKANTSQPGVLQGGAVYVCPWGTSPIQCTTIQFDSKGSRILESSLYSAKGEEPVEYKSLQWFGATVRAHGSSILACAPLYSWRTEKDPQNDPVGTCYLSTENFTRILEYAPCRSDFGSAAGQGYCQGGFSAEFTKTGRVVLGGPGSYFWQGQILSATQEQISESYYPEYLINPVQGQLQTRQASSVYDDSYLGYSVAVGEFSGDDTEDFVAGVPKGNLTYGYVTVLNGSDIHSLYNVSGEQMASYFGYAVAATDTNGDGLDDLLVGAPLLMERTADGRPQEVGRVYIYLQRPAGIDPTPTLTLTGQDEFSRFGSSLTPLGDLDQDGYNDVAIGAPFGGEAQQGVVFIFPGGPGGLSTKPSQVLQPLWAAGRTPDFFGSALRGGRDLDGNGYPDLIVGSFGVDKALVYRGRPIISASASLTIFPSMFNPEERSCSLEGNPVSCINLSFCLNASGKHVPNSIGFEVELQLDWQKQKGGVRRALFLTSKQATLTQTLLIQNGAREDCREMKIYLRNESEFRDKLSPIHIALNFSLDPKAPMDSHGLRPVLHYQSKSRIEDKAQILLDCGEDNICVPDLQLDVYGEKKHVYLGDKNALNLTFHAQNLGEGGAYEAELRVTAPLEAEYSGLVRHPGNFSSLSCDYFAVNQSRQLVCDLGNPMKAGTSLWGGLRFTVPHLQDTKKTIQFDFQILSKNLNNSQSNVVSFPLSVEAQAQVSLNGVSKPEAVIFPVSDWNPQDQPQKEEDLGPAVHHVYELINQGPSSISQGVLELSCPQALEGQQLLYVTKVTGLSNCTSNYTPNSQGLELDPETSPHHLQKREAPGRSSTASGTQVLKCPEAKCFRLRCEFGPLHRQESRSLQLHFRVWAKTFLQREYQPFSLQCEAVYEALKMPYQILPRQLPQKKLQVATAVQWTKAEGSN
T1 sequence (P09055 21-728 limits assumed): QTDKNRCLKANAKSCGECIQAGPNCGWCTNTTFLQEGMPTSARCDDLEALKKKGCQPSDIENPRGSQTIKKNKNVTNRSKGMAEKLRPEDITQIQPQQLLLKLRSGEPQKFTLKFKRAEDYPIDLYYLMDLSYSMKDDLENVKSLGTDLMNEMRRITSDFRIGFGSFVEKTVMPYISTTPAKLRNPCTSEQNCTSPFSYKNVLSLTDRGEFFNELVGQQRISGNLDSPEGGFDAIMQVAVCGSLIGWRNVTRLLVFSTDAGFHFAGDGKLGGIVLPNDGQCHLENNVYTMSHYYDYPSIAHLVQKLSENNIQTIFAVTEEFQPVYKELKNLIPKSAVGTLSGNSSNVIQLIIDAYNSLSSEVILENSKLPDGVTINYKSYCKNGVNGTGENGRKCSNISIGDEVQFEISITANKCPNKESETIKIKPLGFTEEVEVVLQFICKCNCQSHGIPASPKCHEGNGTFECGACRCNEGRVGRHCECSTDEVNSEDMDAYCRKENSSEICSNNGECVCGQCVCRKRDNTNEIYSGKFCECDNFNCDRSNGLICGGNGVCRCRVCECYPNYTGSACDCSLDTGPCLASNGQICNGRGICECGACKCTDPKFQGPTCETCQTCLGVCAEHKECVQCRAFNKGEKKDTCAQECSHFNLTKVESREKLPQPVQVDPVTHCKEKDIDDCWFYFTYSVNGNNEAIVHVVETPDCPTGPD
T2 sequence (P43406 31-988 limits assumed): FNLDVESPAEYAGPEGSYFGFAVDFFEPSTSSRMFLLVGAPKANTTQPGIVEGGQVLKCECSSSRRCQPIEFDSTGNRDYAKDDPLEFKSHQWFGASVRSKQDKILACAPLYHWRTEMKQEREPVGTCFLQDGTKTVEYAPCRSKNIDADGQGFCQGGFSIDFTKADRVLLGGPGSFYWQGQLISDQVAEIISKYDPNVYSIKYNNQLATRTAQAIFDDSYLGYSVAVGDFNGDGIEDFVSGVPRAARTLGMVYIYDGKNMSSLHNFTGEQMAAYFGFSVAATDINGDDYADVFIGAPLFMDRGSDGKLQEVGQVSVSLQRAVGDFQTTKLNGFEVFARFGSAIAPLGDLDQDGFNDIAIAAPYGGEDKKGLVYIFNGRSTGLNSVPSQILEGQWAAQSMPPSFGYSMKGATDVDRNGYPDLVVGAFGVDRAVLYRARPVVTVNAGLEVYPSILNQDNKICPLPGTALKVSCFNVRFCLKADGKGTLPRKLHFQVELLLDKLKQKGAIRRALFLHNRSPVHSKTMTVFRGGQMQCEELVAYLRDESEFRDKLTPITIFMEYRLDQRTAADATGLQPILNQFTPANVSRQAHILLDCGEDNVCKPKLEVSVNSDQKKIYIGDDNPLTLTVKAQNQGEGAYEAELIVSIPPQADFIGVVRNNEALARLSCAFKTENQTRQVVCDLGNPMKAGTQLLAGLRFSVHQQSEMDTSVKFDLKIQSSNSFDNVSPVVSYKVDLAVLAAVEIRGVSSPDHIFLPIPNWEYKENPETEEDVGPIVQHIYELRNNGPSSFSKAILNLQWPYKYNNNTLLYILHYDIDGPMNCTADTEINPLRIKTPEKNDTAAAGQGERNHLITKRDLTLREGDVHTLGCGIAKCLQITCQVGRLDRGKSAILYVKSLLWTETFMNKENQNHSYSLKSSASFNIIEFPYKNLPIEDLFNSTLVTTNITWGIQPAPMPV
T2 sequence (Q0VBD0 22-681 limits assumed): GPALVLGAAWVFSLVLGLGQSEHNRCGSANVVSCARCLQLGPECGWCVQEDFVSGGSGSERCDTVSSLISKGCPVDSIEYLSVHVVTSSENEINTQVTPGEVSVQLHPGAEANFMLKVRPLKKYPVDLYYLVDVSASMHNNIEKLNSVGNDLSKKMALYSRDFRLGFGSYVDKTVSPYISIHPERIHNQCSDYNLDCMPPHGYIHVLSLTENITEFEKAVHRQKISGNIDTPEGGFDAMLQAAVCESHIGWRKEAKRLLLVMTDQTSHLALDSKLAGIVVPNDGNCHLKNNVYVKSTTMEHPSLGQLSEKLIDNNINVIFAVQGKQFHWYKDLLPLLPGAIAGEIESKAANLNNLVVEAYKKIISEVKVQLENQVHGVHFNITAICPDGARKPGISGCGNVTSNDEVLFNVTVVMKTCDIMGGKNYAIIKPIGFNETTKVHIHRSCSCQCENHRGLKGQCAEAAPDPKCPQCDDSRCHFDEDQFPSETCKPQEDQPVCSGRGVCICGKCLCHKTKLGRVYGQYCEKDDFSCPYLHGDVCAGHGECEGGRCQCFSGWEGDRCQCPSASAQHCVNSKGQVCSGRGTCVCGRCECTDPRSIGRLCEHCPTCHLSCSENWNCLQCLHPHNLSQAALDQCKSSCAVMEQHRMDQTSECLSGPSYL
T13 sequence (P43406 31-988 limits assumed): as the sequence (P43406 31-988 limits assumed) above
T13 sequence (O70309 24-719 limits assumed): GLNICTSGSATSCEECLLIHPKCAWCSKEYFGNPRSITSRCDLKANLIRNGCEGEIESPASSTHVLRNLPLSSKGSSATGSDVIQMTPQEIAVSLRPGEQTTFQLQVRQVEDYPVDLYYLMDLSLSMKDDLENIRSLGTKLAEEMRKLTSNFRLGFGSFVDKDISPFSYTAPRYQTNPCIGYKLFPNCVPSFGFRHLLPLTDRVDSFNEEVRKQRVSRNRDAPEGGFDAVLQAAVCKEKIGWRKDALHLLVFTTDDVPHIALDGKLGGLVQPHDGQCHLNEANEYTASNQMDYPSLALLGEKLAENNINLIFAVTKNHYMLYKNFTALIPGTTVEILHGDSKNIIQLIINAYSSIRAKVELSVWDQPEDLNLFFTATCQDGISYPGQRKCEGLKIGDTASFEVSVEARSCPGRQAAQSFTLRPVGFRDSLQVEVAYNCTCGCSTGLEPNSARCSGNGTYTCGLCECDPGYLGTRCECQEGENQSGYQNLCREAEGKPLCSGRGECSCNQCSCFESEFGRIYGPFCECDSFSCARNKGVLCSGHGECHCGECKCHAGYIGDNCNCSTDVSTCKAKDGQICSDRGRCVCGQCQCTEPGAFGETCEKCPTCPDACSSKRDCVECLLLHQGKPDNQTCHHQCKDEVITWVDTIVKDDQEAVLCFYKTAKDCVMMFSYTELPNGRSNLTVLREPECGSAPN
T14 sequence (P43406 31-988 limits assumed): as the sequence (P43406 31-988 limits assumed) above
T14 sequence (O54890 26-717 limits assumed): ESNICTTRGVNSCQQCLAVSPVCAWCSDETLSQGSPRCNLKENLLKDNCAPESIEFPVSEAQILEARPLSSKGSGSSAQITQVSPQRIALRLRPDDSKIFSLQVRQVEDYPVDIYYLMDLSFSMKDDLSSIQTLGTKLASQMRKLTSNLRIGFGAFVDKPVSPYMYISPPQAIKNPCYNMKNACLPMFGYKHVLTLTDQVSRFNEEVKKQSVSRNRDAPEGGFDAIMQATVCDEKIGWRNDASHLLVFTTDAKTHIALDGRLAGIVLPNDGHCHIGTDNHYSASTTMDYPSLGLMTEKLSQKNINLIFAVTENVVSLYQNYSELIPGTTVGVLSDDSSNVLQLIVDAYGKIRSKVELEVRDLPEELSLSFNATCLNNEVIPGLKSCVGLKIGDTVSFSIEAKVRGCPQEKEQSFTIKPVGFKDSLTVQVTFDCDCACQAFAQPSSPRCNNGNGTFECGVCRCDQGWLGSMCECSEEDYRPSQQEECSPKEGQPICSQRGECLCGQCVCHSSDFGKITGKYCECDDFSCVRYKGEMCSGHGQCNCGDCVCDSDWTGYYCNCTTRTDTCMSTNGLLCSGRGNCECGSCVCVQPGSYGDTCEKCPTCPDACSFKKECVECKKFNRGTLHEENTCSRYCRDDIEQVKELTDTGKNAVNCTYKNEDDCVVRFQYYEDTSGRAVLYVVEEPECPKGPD
T4 sequence (P43406 31-988 limits assumed): as the sequence (P43406 31-988 limits assumed) above
T4 sequence (P09055 21-728 limits assumed): as the sequence (P09055 21-728 limits assumed) above

| IC50 (mα5β1) [nM] | IC50 (mαvβ8) [nM] | binding to human αvβ6 integrin in CELISA (hαvβ6) | IC50 (mαvβ1) [nM] | inhibition of latent TGFβ activation, mouse αvβ8 co-culture (mouse αvβ8) | inhibition of latent TGFβ activation, human αvβ8 co-culture (human αvβ8) | inhibition of latent TGFβ activation, mouse αvβ1 co-culture (mouse αvβ1) | inhibition of latent TGFβ activation, human αvβ6 co-culture (human αvβ6) | inhibition of latent TGFβ activation, human αvβ1 co-culture (human αvβ1) | inhibition of latent TGFβ activation, mouse αvβ6 co-culture (mouse αvβ6) | binding to human αvβ1 integrin in CELISA (hαvβ1) | IC50 (mαvβ6) [nM] | IC50 (hα5β1) [nM] | IC50 (mαvβ5) [nM] | IC50 (mαvβ3) [nM] | Molecule | IC50 ([1]; read-out: IC50 of αSMA expression) [nM] | activity on TGFβ-induced αSMA in normal human lung fibroblasts [2] | IC50 ([1]; read-out: IC50 of TGFβ-mediated αSMA induction) [nM] |
| --- | --- | --- | --- | --- | --- | --- | --- | --- | --- | --- | --- | --- | --- | --- | --- | --- | --- | --- |
| > 250 | 102 |  |  |  |  |  |  |  |  |  |  |  |  |  | Ab-29: integrin binder antibody, VH SEQ ID NO: 31, VL SEQ ID NO: 32 (antibody, V domains shown) VH: ELQLQESGPGLVKPSETLSLTCTVSGGSISSNSYYWGWIRQPPGKGLEWIGSIYYSGSTYYNPSLKSRVTISVDTSKNQFSLKLSSVTAADTAVYYCARVRRVAGRGDSYYYYYGMDVWGQGTTVTVSS VL: DIQMTQSPSSVSASVGDRVTITCRASQGISRWLAWYQQKPGKAPKLLIYAASSLQSGVPSRFSGSGSGTDFTLTISSLQPEDFATYYCQQAISHPWTFGGGTKVEIK |  |  |  |
| > 250 | > 250 | preferentially bound | > 250 | minimal activity | potent | minimal activity | potent | potent | minimal activity | preferentially bound | > 250 | > 250 | > 250 | > 250 | mAb-24: control antibody abituzumab; 17E6, a therapeutic pan-αv integrin antibody (antibody, chains of the INN, looked up, V domains shown) VH: QVQLQQSGGELAKPGASVKVSCKASGYTFSSFWMHWVRQAPGQGLEWIGYINPRSGYTEYNEIFRDKATMTTDTSTSTAYMELSSLRSEDTAVYYCASFLGRGAMDYWGQGTTVTVSS VL: DIQMTQSPSSLSASVGDRVTITCRASQDISNYLAWYQQKPGKAPKLLIYYTSKIHSGVPSRFSGSGSGTDYTFTISSLQPEDIATYYCQQGNTFPYTFGQGTKVEIK | > 1000 |  |  |
| > 250 | 66.3 |  |  |  |  |  |  |  |  |  |  |  | > 250 |  | Ab-31: integrin binder antibody, VH SEQ ID NO: 35, VL SEQ ID NO: 36 (antibody, V domains shown) VH: EVQLQESGPGLVKPSETLSLTCAVSGYSISSGYYWGWIRQPPGKGLEWIGSIYHSGNTYYNPSLKSRVTISVDTSKNQFSLKLSSVTAADTAVYYCARVPRYSRGDAYYYYGMDVWGQGTTVTVSS VL: DIQMTQSPSTLSASVGDRVTITCRASQSIGSWLAWYQQKPGKAPKLLIYKASSLESGVPSRFSGSGSGTEFTLTISSLQPDDFATYYCQQSGPYPWTFGGGTKVEIK |  | ineffective | 33 ± 21 |
